Tests used:
[1] = molecular target: anti-VEGF/ANG2 antibody (IgG1 subclass with mutations P329G/L234A/L235A/I253A/H310A/H435A) (human) [IgG part: P01857]; assay: sandwich ELISA assay B; capture on SA plate; tracer M1.7.10-Dig; analyte 3 ng/mL
[2] = molecular target: anti-IGF-1R antibody (IgG1 subclass with mutations I253A/H310A/H435A) (human) [IgG part: P01857]; assay: as above
[3] = molecular target: anti-P-Selectin antibody (IgG4 subclass with mutations S228P/L235E) (human) [IgG part: P01861]; assay: as above
[4] = molecular target: anti-VEGF/ANG2 antibody (IgG1 subclass with mutations P329G/L234A/L235A) (human) [IgG part: P01857]; assay: as above
[5] = molecular target: anti-P-Selectin antibody (IgG4 subclass with mutations S228P/L235E) [IgG part: P01861]; assay: sandwich ELISA assay A; capture M1.7.10-Bi; antibody 4 at 13 ng/mL
[6] = molecular target: anti-VEGF/ANG2 antibody (IgG1 subclass with mutations P329G/L234A/L235A/I253A/H310A/H435A) (human) [IgG part: P01857]; assay: sandwich ELISA assay B; capture on SA plate; tracer M1.7.10-Dig; analyte 13 ng/mL
[7] = molecular target: anti-IGF-1R antibody (IgG1 subclass with mutations I253A/H310A/H435A) (human) [IgG part: P01857]; assay: as above
[8] = molecular target: anti-P-Selectin antibody (IgG4 subclass with mutations S228P/L235E) (human) [IgG part: P01861]; assay: as above
[9] = molecular target: anti-VEGF/ANG2 antibody (IgG1 subclass with mutations P329G/L234A/L235A) (human) [IgG part: P01857]; assay: as above
[10] = molecular target: anti-VEGF/ANG2 antibody (wild-type IgG1 subclass) [IgG part: P01857]; assay: sandwich ELISA assay A; capture M1.7.10-Bi; antibody 5 at 100 ng/mL
[11] = molecular target: anti-VEGF/ANG2 antibody (IgG1 subclass with mutations P329G/L234A/L235A/I253A/H310A/H435A) [IgG part: P01857]; assay: sandwich ELISA assay A; capture M1.7.10-Bi; antibody 1 at 25 ng/mL
[12] = molecular target: anti-VEGF/ANG2 antibody (IgG1 subclass with mutations P329G/L234A/L235A/I253A/H310A/H435A) [IgG part: P01857]; assay: sandwich ELISA assay A; capture M1.7.10-Bi; antibody 1 at 13 ng/mL
[13] = molecular target: anti-VEGF/ANG2 antibody (wild-type IgG1 subclass) [IgG part: P01857]; assay: sandwich ELISA assay A; capture M1.7.10-Bi; antibody 5 at 3 ng/mL
[14] = molecular target: anti-VEGF/ANG2 antibody (IgG1 subclass with mutations P329G/L234A/L235A) [IgG part: P01857]; assay: sandwich ELISA assay A; capture M1.7.10-Bi; antibody 2 at 50 ng/mL
[15] = molecular target: anti-VEGF/ANG2 antibody (IgG1 subclass with mutations P329G/L234A/L235A/I253A/H310A/H435A) (human) [IgG part: P01857]; assay: sandwich ELISA assay B; capture on SA plate; tracer M1.7.10-Dig; analyte 6 ng/mL
[16] = molecular target: anti-IGF-1R antibody (IgG1 subclass with mutations I253A/H310A/H435A) (human) [IgG part: P01857]; assay: as above
[17] = molecular target: anti-P-Selectin antibody (IgG4 subclass with mutations S228P/L235E) (human) [IgG part: P01861]; assay: as above
[18] = molecular target: anti-VEGF/ANG2 antibody (IgG1 subclass with mutations P329G/L234A/L235A) (human) [IgG part: P01857]; assay: as above
[19] = molecular target: anti-VEGF/ANG2 antibody (wild-type IgG1 subclass) [IgG part: P01857]; assay: sandwich ELISA assay A; capture M1.7.10-Bi; antibody 5 at 25 ng/mL
[20] = molecular target: anti-VEGF/ANG2 antibody (IgG1 subclass with mutations P329G/L234A/L235A/I253A/H310A/H435A) [IgG part: P01857]; assay: sandwich ELISA assay A; capture M1.7.10-Bi; antibody 1 at 3 ng/mL
[21] = molecular target: anti-VEGF/ANG2 antibody (wild-type IgG1 subclass) [IgG part: P01857]; assay: sandwich ELISA assay A; capture M1.7.10-Bi; antibody 5 at 6 ng/mL
[22] = molecular target: anti-VEGF/ANG2 antibody (IgG1 subclass with mutations P329G/L234A/L235A/I253A/H310A/H435A) (human) [IgG part: P01857]; assay: sandwich ELISA assay B; capture on SA plate; tracer M1.7.10-Dig; analyte 25 ng/mL
[23] = molecular target: anti-IGF-1R antibody (IgG1 subclass with mutations I253A/H310A/H435A) (human) [IgG part: P01857]; assay: as above
[24] = molecular target: anti-P-Selectin antibody (IgG4 subclass with mutations S228P/L235E) (human) [IgG part: P01861]; assay: as above
[25] = molecular target: anti-VEGF/ANG2 antibody (IgG1 subclass with mutations P329G/L234A/L235A) (human) [IgG part: P01857]; assay: as above

Row | Binder | signal [OD405 nm] [1] [OD405 nm] | signal [OD405 nm] [2] [OD405 nm] | signal [OD405 nm] [3] [OD405 nm] | signal [OD405 nm] [4] [OD405 nm] | signal [OD405 nm] [5] [OD405 nm] | signal [OD405 nm] [6] [OD405 nm] | signal [OD405 nm] [7] [OD405 nm] | signal [OD405 nm] [8] [OD405 nm] | signal [OD405 nm] [9] [OD405 nm] | signal [OD405 nm] [10] [OD405 nm] | signal [OD405 nm] [11] [OD405 nm] | signal [OD405 nm] [12] [OD405 nm] | signal [OD405 nm] [13] [OD405 nm] | signal [OD405 nm] [14] [OD405 nm] | signal [OD405 nm] [15] [OD405 nm] | signal [OD405 nm] [16] [OD405 nm] | signal [OD405 nm] [17] [OD405 nm] | signal [OD405 nm] [18] [OD405 nm] | signal [OD405 nm] [19] [OD405 nm] | signal [OD405 nm] [20] [OD405 nm] | other results
1 | anti-AAA variant Fc-region antibody M1.6.22 (antibody, V domains shown) VH: EVQLVESGGDLVKPGGSLKLSCAASGFTFSSYGMSWVRQTPDKRLEWVATISSGGSYIYYPDSVKGRFTISRDNAKNTLYLQMSSLKSEDTAMYYCARLGMITTGYAMDYWGQGTSVTVSS VL: DVLMTQTPLSLPVSLGDQASISCRSSQTIVHSTGHTYLEWFLQKPGQSPKLLIYKVSNRFSGVPDRFSGSGSGTDFTLKISRVEAEDLGVYYCFQGSHVPYTFGGGTKLEIK | 0.039 | 2.26 | 0.039 | 0.044 | 0.05 | 0.041 | 2.85 | 0.042 | 0.066 | 0.056 | 0.061 | 0.061 | 0.039 | 0.065 | 0.039 | 2.73 | 0.04 | 0.053 | 0.053 | 0.057 | signal [OD405 nm] [21]: 0.046 OD405 nm; signal [OD405 nm] [22]: 0.044 OD405 nm; signal [OD405 nm] [23]: 2.89 OD405 nm; signal [OD405 nm] [24]: 0.048 OD405 nm; signal [OD405 nm] [25]: 0.092 OD405 nm
2 | anti-variant (human) Fc-region antibody M1.3.17 (antibody, V domains shown) VH: EVKLLESGGGLVQPGGSLKLSCAASGIDFRRYWMNWVRQAPGKGLEWIGEIDPDSSTINYTPSLKDKFIISRDNAKNTMYLQMRKVRSEDTALYYCARPYDYGAWFAYWGQGTLVTVSA VL: QAVVTQESALTTSPGETVTLTCRSTTGAVTTSNYANWVQEKPDHLFTGLIGGTNKRAPGVPARFSGSLIGDKAALTITGAQTEDEAIYFCALWYSDHWVFGGGTKLTVL | 0.036 | 0.047 | 0.05 | 0.165 | 0.038 | 0.034 | 0.044 | 0.047 | 0.217 | 0.042 | 0.04 | 0.04 | 0.033 | 2.96 | 0.035 | 0.045 | 0.048 | 0.196 | 0.037 | 0.038 | signal [OD405 nm] [21]: 0.036 OD405 nm; signal [OD405 nm] [22]: 0.035 OD405 nm; signal [OD405 nm] [23]: 0.046 OD405 nm; signal [OD405 nm] [24]: 0.047 OD405 nm; signal [OD405 nm] [25]: 0.213 OD405 nm
3 | anti-variant (human) Fc-region antibody M1.7.24 (antibody, V domains shown) VH: EVKLLESGGGLVQPGGSLKLSCAASGFDFSRYWMNWVRQAPGKGLEWIGEITPDSSTINYTPSLKDKFIISRDNAKNTLYLQMIKVRSEDTALYYCVRPYDYGAWFASWGQGTLVTVSA VL: QAVVTQESALTTSPGETVTLTCRSSTGAVTTSNYANWVQEKPDHLFTGLIGGTNKRAPGVPARFSGSLIGDKAALTITGAQTEDEAIYFCALWYSNHWVFGGGTKLTVL | 0.04 | 0.046 | 0.031 | 2.51 | 0.046 | 0.053 | 0.043 | 0.037 | 3.15 | 0.042 | 0.047 | 0.047 | 0.038 | 2.6 | 0.053 | 0.039 | 0.037 | 2.98 | 0.039 | 0.046 | signal [OD405 nm] [21]: 0.042 OD405 nm; signal [OD405 nm] [22]: 0.047 OD405 nm; signal [OD405 nm] [23]: 0.048 OD405 nm; signal [OD405 nm] [24]: 0.04 OD405 nm; signal [OD405 nm] [25]: 3.16 OD405 nm

— US20180346602A1
